The source of these data is patent US20230056252A1 (Gilead, published 2023).

B1: mSP34 Fab-HF (Fab, V domains shown)
VH: EVKLLESGGGLVQPKGSLKLSCAASGFTFNTYAMNWVRQAPGKGLEWVARIRSKYNNYATYYADSVKDRFTISRDDSQSILYLQMNNLKTEDTAMYYCVRHGNFGNSYVSWFAYWGQGTLVTVSA
VL: QAVVTQESALTTSPGETVTLTCRSSTGAVTTSNYANWVQEKPDHLFTGLIGGTNKRAPGVPARFSGSLIGDKAALTITGAQTEDEAIYFCALWYSNLWVFGGGTKLTVLG
notes: also called mSP34 chimeric Fab; mSP34 human chimeric Fab
B2: huSP34.2.1 Fab-HF (Fab, V domains shown)
VH: EVQLVESGGGLVQPGGSLRLSCAASGFTFSTYAMNWVRQAPGKGLEWVGRIRSKYNNYATYYAASVKGRFTISRDDSKNSLYLQMNSLKTEDTAMYYCVRHGNFGNSYVSWFAVWGQGTLVTVSS
VL: QAVVTQEPSLTVSPGGTVTLTCRSSTGAVTTSNYANWVQQKPGQAPRGLIGGTNKRAPWTPARFSGSLIGDKAALTLSGAQPEDEAEYYCALWYSNLWVFGGGTKLTVL
notes: also called HC2+LC1
B3: huSP34.5.5 Fab-HF (Fab, V domains shown)
VH: B2 VH with A64D, D76N, S80T, K89R, T90A, M95V, N106H
VL: B2 VL with R23G, S32G, N33H, N54S, K55N, I69L, D71G, N96A, L97R
notes: also called HC5+LC5
B4: huSP34.5.2 Fab-HF (Fab, V domains shown)
VH: B2 VH with A64D, D76N, S80T, K89R, T90A, M95V, N106H
VL: B2 VL with R23G, N54S, K55N, I69L, D71G
notes: also called HC5+LC2
B5: huSP34.4.2 Fab-HF (Fab, V domains shown)
VH: B2 VH with K89R, M95V, N106H
VL: B2 VL with R23G, N54S, K55N, I69L, D71G
notes: also called HC4+LC2
B6: huSP34.5.1 Fab-HF (Fab, V domains shown)
VH: B2 VH with A64D, D76N, S80T, K89R, T90A, M95V, N106H
VL: B2 VL
notes: also called HC5+LC1
B7: huSP34.2.2 Fab-HF (Fab, V domains shown)
VH: B2 VH
VL: B2 VL with R23G, N54S, K55N, I69L, D71G
notes: also called HC2+LC2
B8: huSP34.3.5 Fab-HF (Fab, V domains shown)
VH: B2 VH with S30N, A64D, K89R, M95V, N106H, V114Y
VL: B2 VL with R23G, S32G, N33H, N54S, K55N, I69L, D71G, N96A, L97R
notes: also called HC3+LC5
B9: huSP34.8.2 Fab-HF (Fab, V domains shown)
VH: B2 VH with T31D, I51T, M95V, N106H
VL: B2 VL with R23G, N54S, K55N, I69L, D71G
notes: also called HC8+LC2
B10: huSP34.3.6 Fab-HF (Fab, V domains shown)
VH: B2 VH with S30N, A64D, K89R, M95V, N106H, V114Y
VL: QAVVTQPPSLTVSPGGTVTLTCGSSTGAVTTGHYANWVQQKPGQAPRGLIGGTSNRAPGVPARFSGSLSGGKAALTISGAQPEDEAEYYCALWYSARWVFGGGTKLTVL
notes: also called HC3+LC6
B11: huSP34.7.2 Fab-HF (Fab, V domains shown)
VH: B2 VH with T31D, I51T, M95V
VL: B2 VL with R23G, N54S, K55N, I69L, D71G
notes: also called HC7+LC2
B12: huSP34.6.1 Fab-HF (Fab, V domains shown)
VH: B2 VH with A64D, D76N, S80T, K89R, T90A
VL: B2 VL
notes: also called HC6+LC1
B13: huSP34.2.5 Fab-HF (Fab, V domains shown)
VH: B2 VH
VL: B10 VL with P7E, G59W, V60T, S69L, I77L
notes: also called HC2+LC5
B14: huSP34.6.5 Fab-HF (Fab, V domains shown)
VH: B2 VH with A64D, D76N, S80T, K89R, T90A
VL: B10 VL with P7E, G59W, V60T, S69L, I77L
notes: also called HC6+LC5
B15: huSP34.4.4 Fab-HF (Fab, V domains shown)
VH: B2 VH with K89R, M95V, N106H
VL: B2 VL with R23G, N33H, N54S, I69L, D71G, N96A
notes: also called HC4+LC4
B16: huSP34.6.4 Fab-HF (Fab, V domains shown)
VH: B2 VH with A64D, D76N, S80T, K89R, T90A
VL: B2 VL with R23G, N33H, N54S, I69L, D71G, N96A
notes: also called HC6+LC4
B17: huSP34.4.5 Fab-HF (Fab, V domains shown)
VH: B2 VH with K89R, M95V, N106H
VL: B10 VL with P7E, G59W, V60T, S69L, I77L
notes: also called HC4+LC5
B18: huSP34.3.4 Fab-HF (Fab, V domains shown)
VH: B2 VH with S30N, A64D, K89R, M95V, N106H, V114Y
VL: B2 VL with R23G, N33H, N54S, I69L, D71G, N96A
notes: also called HC3+LC4
B19: huSP34.5.4 Fab-HF (Fab, V domains shown)
VH: B2 VH with A64D, D76N, S80T, K89R, T90A, M95V, N106H
VL: B2 VL with R23G, N33H, N54S, I69L, D71G, N96A
notes: also called HC5+LC4
B20: huSP34.8.4 Fab-HF (Fab, V domains shown)
VH: B2 VH with T31D, I51T, M95V, N106H
VL: B2 VL with R23G, N33H, N54S, I69L, D71G, N96A
notes: also called HC8+LC4
B21: huSP34.7.5 Fab-HF (Fab, V domains shown)
VH: B2 VH with T31D, I51T, M95V
VL: B10 VL with P7E, G59W, V60T, S69L, I77L
notes: also called HC7+LC5
B22: huSP34.4.1 Fab-HF (Fab, V domains shown)
VH: B2 VH with K89R, M95V, N106H
VL: B2 VL
notes: also called HC4+LC1
B23: huSP34.7.4 Fab-HF (Fab, V domains shown)
VH: B2 VH with T31D, I51T, M95V
VL: B2 VL with R23G, N33H, N54S, I69L, D71G, N96A
notes: also called HC7+LC4
B24: huSP34.6.2 Fab-HF (Fab, V domains shown)
VH: B2 VH with A64D, D76N, S80T, K89R, T90A
VL: B2 VL with R23G, N54S, K55N, I69L, D71G
notes: also called HC6+LC2
B25: huSP34.7.1 Fab-HF (Fab, V domains shown)
VH: B2 VH with T31D, I51T, M95V
VL: B2 VL
notes: also called HC7+LC1
B26: huSP34.2.4 Fab-HF (Fab, V domains shown)
VH: B2 VH
VL: B2 VL with R23G, N33H, N54S, I69L, D71G, N96A
notes: also called HC2+LC4
B27: huSP34.4.6 Fab-HF (Fab, V domains shown)
VH: B2 VH with K89R, M95V, N106H
VL: B10 VL
notes: also called HC4+LC6
B28: huSP34.2.6 Fab-HF (Fab, V domains shown)
VH: B2 VH
VL: B10 VL
notes: also called HC2+LC6
B29: huSP34.3.2 Fab-HF (Fab, V domains shown)
VH: B2 VH with S30N, A64D, K89R, M95V, N106H, V114Y
VL: B2 VL with R23G, N54S, K55N, I69L, D71G
notes: also called HC3+LC2
B30: huSP34.3.1 Fab-HF (Fab, V domains shown)
VH: B2 VH with S30N, A64D, K89R, M95V, N106H, V114Y
VL: B2 VL
notes: also called HC3+LC1
B31: huSP34.8.1 Fab-HF (Fab, V domains shown)
VH: B2 VH with T31D, I51T, M95V, N106H
VL: B2 VL
notes: also called HC8+LC1

Residue numbers refer to the chain shown, from its start.

What is called Kd is the constant that tells how readily two partners part at equilibrium. A low value points to a tighter complex. Usually koff stands for a measure of how fast the partners let go of each other. For orientation: kon means the second-order rate constant of association. Read a high kon as faster complex formation.

For the assay, the target named is T1, biotinylated CD3 epsilon:delta heterodimer protein (Amsbio AMS.CDD-H52WO) (Homo sapiens (Human), UniProt P07766 23-126; P04234 22-105).
T1 construct: also called CD3 heterodimer
Put plainly: BLI (Octet), CD3 on SA sensor, Fab analyte.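 Further: biolayer interferometry with biotinylated CD3 epsilon:delta captured on streptavidin sensors, Fab analyte at several concentrations up to 300 nM, 100 s association then 300 s dissociation.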 A general note: Biolayer interferometry detects binding as a change in optical thickness at a sensor tip.
Protocol: The CD3 binding kinetics of the purified huSP34 Fabs were determined using OctetRed384 (Pall ForteBio, CA) biolayer interferometry (BLI). […] Streptavidin (SA) coated biosensors tips (Pall ForteBio, CA) were used to capture biotinylated CD3 epsilon: delta heterodimer and typical immobilization levels captured on the SA sensors were 1 nm which approximately translates to 300 ng/ml of captured protein. For kinetic measurements biosensors were first pre-wetted with assay buffer for 10 minutes to remove protective sucrose coating followed by the recommended regeneration conditions for standardization of the biosensor surface for the experiment. In order to load the biosensors with antigen, 300 ng/ml of biotinylated CD3 epsilon: delta heterodimer protein (Amsbio AMS.CDD-H52WO) was immobilized on the SA sensor for 900 seconds. The CD3 loaded biosensors were then blocked with 20 ug/ml biocytin (sigma) for 200 seconds and then dipped into assay buffer containing wells for 200 seconds to remove any non-specific protein or unbound CD3 heterodimer.
CD3 loaded and biocytin blocked biosensors were then transferred into fresh assay buffer for 200 seconds to collect a baseline read. Kinetic measurements for anti-CD3 Fab and bispecific antibody binding were performed by dipping the CD3-coated biosensors into wells containing multiple concentrations of Fab or Ab (0-300 nM) for 100 seconds followed by a 300 second dissociation time by transferring the biosensors into assay buffer containing wells. The CD3 loaded sensors were then regenerated for the next kinetic measurement. Biosensors were generated by removing bound Fabs or Ab from immobilized CD3 on SA biosensors. Regeneration conditions used consisted of 3 cycles of 5 seconds of dipping the biosensors in Regeneration Buffer (10 mM Glycine HCl pH 1.5) followed by Assay Buffer (10 mM sodium phosphate pH 7.4, 140 mM Sodium Chloride, 0.005% Tween20 with 0.2% BSA).
B1 returned a Kd of 9.6 nM, a dissociation rate constant (koff) of 0.0025 s⁻¹ and a kon of 262000 M⁻¹ s⁻¹.

B2 registered a dissociation constant (Kd) of 24.6 nM, a koff of 0.00596 s⁻¹ and a kon of 246000 M⁻¹ s⁻¹.

The molecule B3 returned a Kd of 666 nM, a dissociation rate constant (koff) of 0.185 s⁻¹ and a kon of 277000 M⁻¹ s⁻¹.

Consider B4, for which the Kd is 1200 nM, the koff amounted to 0.109 s⁻¹ and the on-rate constant (kon) turned out to be 90800 M⁻¹ s⁻¹.

B5 returned a Kd of 45.2 nM, a koff of 0.0144 s⁻¹ and a kon of 321000 M⁻¹ s⁻¹.

Turning to B6, the equilibrium dissociation constant (Kd) was found to be 123 nM, the koff came out at 0.0365 s⁻¹ and the kon came out at 311000 M⁻¹ s⁻¹.

Regarding B7, the Kd came out at 26.4 nM, the dissociation rate constant (koff) was 0.0141 s⁻¹ and the on-rate (kon) was 609000 M⁻¹ s⁻¹.

For B8, the Kd was 68.5 nM, the off-rate constant (koff) stood at 0.0177 s⁻¹ and the on-rate (kon) was determined as 260000 M⁻¹ s⁻¹.

As for B9, the Kd was found to be 3440 nM, the koff is 0.0982 s⁻¹ and the kon stood at 172000 M⁻¹ s⁻¹.

As for B10, the Kd was 18.9 nM, the koff worked out at 0.00482 s⁻¹ and the kon is 266000 M⁻¹ s⁻¹.

For B11, binding was put at a Kd of 498 nM, the off-rate constant (koff) was determined as 0.155 s⁻¹ and the on-rate constant (kon) was 318000 M⁻¹ s⁻¹.

Turning to B12, the Kd was found to be 53.9 nM, the off-rate constant (koff) came to 0.0199 s⁻¹ and the association rate constant (kon) worked out at 478000 M⁻¹ s⁻¹.

As to B13, the Kd was 162 nM, the off-rate constant (koff) was 0.0408 s⁻¹ and the on-rate (kon) was determined as 251000 M⁻¹ s⁻¹.

In the case of B14, binding was characterised by a dissociation constant (Kd) of 353 nM, the koff came to 0.0963 s⁻¹ and the on-rate (kon) was determined as 273000 M⁻¹ s⁻¹.

B15: the affinity, expressed as Kd, was 159 nM; the koff turned out to be 0.0436 s⁻¹; the kon is 274000 M⁻¹ s⁻¹.

B16 displayed a Kd of 570 nM, an off-rate constant (koff) of 0.202 s⁻¹ and a kon of 359000 M⁻¹ s⁻¹.

B17 returned a dissociation constant Kd of 211 nM, a koff of 0.0506 s⁻¹ and a kon of 241000 M⁻¹ s⁻¹.

As to B18, the dissociation constant Kd was 85.8 nM, the off-rate (koff) came out at 0.0246 s⁻¹ and the kon was 287000 M⁻¹ s⁻¹.

Turning to B19, binding was put at a Kd of 497 nM, the dissociation rate constant (koff) was found to be 0.213 s⁻¹ and the on-rate constant (kon) stood at 429000 M⁻¹ s⁻¹.

B20: the affinity, expressed as Kd, was 305 nM; the koff stood at 0.163 s⁻¹; the kon amounted to 561000 M⁻¹ s⁻¹.

Regarding B21, the Kd was 1460 nM, the koff was 0.848 s⁻¹ and the association rate constant (kon) was determined as 307000 M⁻¹ s⁻¹.

B22: the affinity, expressed as Kd, was 19.8 nM; the off-rate constant (koff) was 0.00723 s⁻¹; the on-rate constant (kon) was determined as 396000 M⁻¹ s⁻¹.

On to B23, for which the Kd stood at 4180 nM, the off-rate constant (koff) came to 0.424 s⁻¹ and the kon was 265000 M⁻¹ s⁻¹.

Molecule B24 yielded a Kd of 351 nM, an off-rate (koff) of 0.0499 s⁻¹ and a kon of 144000 M⁻¹ s⁻¹.

As for B25, the Kd is 372 nM, the off-rate constant (koff) is 0.0855 s⁻¹ and the on-rate (kon) was 235000 M⁻¹ s⁻¹.

Molecule B26 registered an equilibrium dissociation constant (Kd) of 99.4 nM, a koff of 0.0335 s⁻¹ and an on-rate constant (kon) of 398000 M⁻¹ s⁻¹.

As to B27, the equilibrium dissociation constant (Kd) was 22.7 nM, the koff turned out to be 0.0101 s⁻¹ and the kon was 451000 M⁻¹ s⁻¹.

Molecule B28 displayed a Kd of 30.6 nM, a koff of 0.0107 s⁻¹ and a kon of 351000 M⁻¹ s⁻¹.

As to B29, the affinity, expressed as Kd, was 25.4 nM; the off-rate constant (koff) was found to be 0.00952 s⁻¹; the on-rate (kon) was 381000 M⁻¹ s⁻¹.

Molecule B30 gave an equilibrium dissociation constant (Kd) of 14.7 nM, a koff of 0.00366 s⁻¹ and a kon of 252000 M⁻¹ s⁻¹.

Take B31: the dissociation constant (Kd) stood at 443 nM, the koff was determined as 0.0823 s⁻¹ and the kon is 186000 M⁻¹ s⁻¹.
